Patent publication US20170051047A1 (CANGENE, published 2017)
Like-named read-outs stand apart in the source and are kept apart here.

Assays:
[1] = molecular target: T1, Clostridium difficile toxin A (whole toxin A) (Clostridium difficile, UniProt P16154 1-2710)
[2] = molecular target: T2, Clostridium difficile toxin B (whole) (Clostridium difficile, UniProt P18177 2-2366); assay: Western blot
T2 construct: mature

[3] = molecular target: T1, Clostridium difficile toxin A (whole …); assay: cell-based or functional assay
[4] = molecular target: T1, Clostridium difficile toxin A (whole …); remark: listed apart in the source

Binder	Kd [1]	koff [1]	kon [1]	binding result [2]	EC50 Value (µg/mL), in vitro toxin A neutralization [3]	Kd [4]	koff [4]	kon [4]
CAN20G1 (antibody, V domains shown) VH: QIQLVQSGPELKKPGETVKISCKASGYTFTNDGMNWVKQAPGKGLKWMGWINTNTGEPTYVEEFKGRFAFSLETSASTAYLQINNLKNEDTATYFCYVNYDYYTMDCWGQGTSVTVSS VL: QVVLTQSPAIMSASLGERVTMTCTASSSVISSYLHWYQQKPGSSPKLWIYSTSTLASGVPARFSGSGSGTSYSLTISSMEAEDAATYYCLQYHRSPRTFGGGTKLEIK	1.79 nM	0.000219 s⁻¹	123000 M⁻¹ s⁻¹	no binding (tested: 1 µg/ml)	0.17 µg/mL			
HE-huCAN20G2 (antibody, V domains shown) VH: QIQLVQSGPELKKPGETVKISCKASGYTFTNQGMNWVKQAPGKGLKWMGWINTNTGEPTYTADFTGRFAFSLETSVSTAYLQINSLKAEDTATYFCYVNYDYYTMDFWGQGTLVTVSS VL: DVQLTQSPSIMSASLGDRVTMTCTASSSVISTYLHWYQQKPGSSPKLWIYSTSTLASGVPPRFSGSGSGTDYSLTISSMEPEDAATYYCLQYHRSPRTFGGGTKVEIKR						0.332 nM	3.14e-05 s⁻¹	93900 M⁻¹ s⁻¹
AVA-huCAN20G2 (antibody, V domains shown) VH: QIQLVQSGPELKKPGETVKISCKASGYTFTNQGMNWVKQAPGKGLKWMGWINTNTGEPTYTADFTGRFAFSLETSVSTAYLQINSLKAEDTATYFCYVNYDYYTMDFWGQGTLVTVSS VL: DIQMTQSPSSLSASVGDRVTITCSASSSVISTYLNWYQQKPGKAPKVLIYSTSSLHSGVPSRFSGSGSGTDFTLTISSLQPEDFATYYCLQYHRSPRTFGQGTKVEIKR						1.33 nM	9.02e-05 s⁻¹	54500 M⁻¹ s⁻¹
CAN20G2 (antibody, V domains shown) VH: QIQLVQSGPEVKKPGETVKISCKASGYTFTNQGMNWVKQAPGKGLKWMGWINTNTGEPTYTEEFKGRFAFSLETSASTAYLQINNLKNEDTATYFCYVNYDYYTMDFWGQGTSVTVSS VL: QVVLTQSPAIMSASLGDRVTMTCTASSSVISTYLHWYQQKPGSSPKLWIYSTSTLASGVPPRFSGSGSGTSYSLTISSMEAEDAATYYCLQYHRSPRTFGGGTKLEIK					0.0101 µg/mL			
CAN20G5 (antibody, V domains shown) VH: QIQLVQSGPELKKPGETVKISCKASGYSFTNSGMNWVKEAPGKGLKWMGWINTNTGEPTYAEEFMGRFAFSLETSASTAYLQINNLKNEDTATYFCYVNYDYYTIDYWGQGTSVTVSS VL: QIVLTQSPAIMSASLGERVTMTCTASSSVYSTYLHWYQQKPGSSPKLWIYSTSNLASGVPARFSGSGSGTSYSLTISSMEAEDAATYYCHQYHRSPRTFGGGTKLEIK	2.01 nM	0.000168 s⁻¹	83800 M⁻¹ s⁻¹	no binding (tested: 1 µg/ml)	0.13 µg/mL			
CAN20G8 (antibody, V domains shown) VH: QIQLVQSGPELKKPGETVKISCKASGYAFTNDGMNWVKQAPGKGLKWMGWINTNTGEPTYAEEFKGRFAFSLETSASTAYLQINNLKNEDTATYFCYVNYDYYTMDCWGQGTSVTVSS VL: QVVLTQSPAIMSASLGERVTMTCTASSSVISSYLHWYQQKPGSSPKLWIYSTSILASGVPARFSGSGSGTSYSLTISSMEAEDAATYYCLQYHRSPRTFGGGTKLEIK	1.65 nM	0.000216 s⁻¹	131000 M⁻¹ s⁻¹	no binding (tested: 1 µg/ml)	0.137 µg/mL			
CDR-huCAN20G2 (antibody, V domains shown) VH: QVQLVQSGSELKKPGASVKVSCKASGYTFTNQGMNWVRQAPGQGLEWMGWINTNTGEPTYAQGFTGRFVFSLDTSVSTAYLQISSLKAEDTAVYYCYVNYDYYTMDFWGQGTTVTVSS VL: DIQMTQSPSSLSASVGDRVTITCRASSSVISTYLNWYQQKPGKAPKLLIYSTSSLQSGVPSRFSGSGSGTDFTLTISSLQPEDFATYYCLQYHRSPRTFGGGTKVEIK						0.8 nM	5.41e-05 s⁻¹	67600 M⁻¹ s⁻¹
